# Results as given in US20110124576A1 (NOVOZYMES A S, published 2011).
# Substitutions are numbered along the chain they refer to. Names and notes keep the numbering of the source.
# B1: recombinant thiotransferrin (S28C, S415A, T613A) (ligand)
# chain: VPDKTVRWCAVSEHEATKCQSFRDHMKCVIPSDGPSVACVKKASYLDCIRAIAANEADAVTLDAGLVYDAYLAPNNLKPVVAEFYGSKEDPQTFYYAVAVVKKDSGFQMNQLRGKKSCHTGLGRSAGWNIPIGLLYCDLPEPRKPLEKAVANFFSGSCAPCADGTDFPQLCQLCPGCGCSTLNQYFGYSGAFKCLKDGAGDVAFVKHSTIFENLANKADRDQYELLCLDNTRKPVDEYKDCHLAQVPSHTVVARSMGGKEDLIWELLNQAQEHFGKDKSKEFQLFSSPHGKDLLFKDSAHGFLKVPPRMDAKMYLGYEYVTAIRNLREGTCPEAPTDECKPVKWCALSHHERLKCDEWSVNSVGKIECVSAETTEDCIAKIMNGEADAMSLDGGFVYIAGKCGLVPVLAENYNKADNCEDTPEAGYFAVAVVKKSASDLTWDNLKGKKSCHTAVGRTAGWNIPMGLLYNKINHCRFDEFFSEGCAPGSKKDSSLCKLCMGSGLNLCEPNNKEGYYGYTGAFRCLVEKGDVAFVKHQTVPQNTGGKNPDPWAKNLNEKDYELLCLDGTRKPVEEYANCHLARAPNHAVVTRKDKEACVHKILRQQQHLFGSNVADCSGNFCLFRSETKDLLFRDDTVCLAKLHDRNTYEKYLGEEYVKAVGNLRKCSTSSLLEACTFRRP
# modifications: free thiol at Cys 28
# notes: Iron-loaded in SPR, 55Fe-loaded in the K562 assay; also called from Strain 1 [pDB3767]
# B2: recombinant thiotransferrin (S415C, T613A) (ligand)
# chain: B1 chain with C28S, A415C
# modifications: free thiol at Cys 415
# notes: Iron-loaded in SPR, 55Fe-loaded in the K562 assay; also called from Strain 1 [pDB3773]
# B3: fluorescein conjugated thiotransferrin (S415C, T613A) (ligand)
# chain: B1 chain with C28S, A415C
# modifications: fluorescein-5-maleimide conjugated to the free thiol of Cys 415
# notes: Iron-loaded in SPR, 55Fe-loaded in the K562 assay; also called Fluorescein conjugated recombinant thiotransferrin (S415C, T613A)
# B4: fluorescein conjugated thiotransferrin (S28C, S415A, T613A) (ligand)
# chain: B1 chain
# modifications: fluorescein-5-maleimide conjugated to the free thiol of Cys 28
# notes: Iron-loaded in SPR, 55Fe-loaded in the K562 assay; also called Fluorescein conjugated recombinant thiotransferrin (S28C, S415A, T613A)
# B5: recombinant human transferrin (S415A, T613A) (ligand)
# chain: B1 chain with C28S
# notes: Secreted from S. cerevisiae; 55Fe-loaded (diferric) in the K562 assay; also called Deltaferrin; rTf
# Target: T1, transferrin receptor on human erythroleukemic K562 cells (human, UniProt P02786 1-760)
# Test: cell-based or functional assay
# T1 sequence (P02786 whole entry): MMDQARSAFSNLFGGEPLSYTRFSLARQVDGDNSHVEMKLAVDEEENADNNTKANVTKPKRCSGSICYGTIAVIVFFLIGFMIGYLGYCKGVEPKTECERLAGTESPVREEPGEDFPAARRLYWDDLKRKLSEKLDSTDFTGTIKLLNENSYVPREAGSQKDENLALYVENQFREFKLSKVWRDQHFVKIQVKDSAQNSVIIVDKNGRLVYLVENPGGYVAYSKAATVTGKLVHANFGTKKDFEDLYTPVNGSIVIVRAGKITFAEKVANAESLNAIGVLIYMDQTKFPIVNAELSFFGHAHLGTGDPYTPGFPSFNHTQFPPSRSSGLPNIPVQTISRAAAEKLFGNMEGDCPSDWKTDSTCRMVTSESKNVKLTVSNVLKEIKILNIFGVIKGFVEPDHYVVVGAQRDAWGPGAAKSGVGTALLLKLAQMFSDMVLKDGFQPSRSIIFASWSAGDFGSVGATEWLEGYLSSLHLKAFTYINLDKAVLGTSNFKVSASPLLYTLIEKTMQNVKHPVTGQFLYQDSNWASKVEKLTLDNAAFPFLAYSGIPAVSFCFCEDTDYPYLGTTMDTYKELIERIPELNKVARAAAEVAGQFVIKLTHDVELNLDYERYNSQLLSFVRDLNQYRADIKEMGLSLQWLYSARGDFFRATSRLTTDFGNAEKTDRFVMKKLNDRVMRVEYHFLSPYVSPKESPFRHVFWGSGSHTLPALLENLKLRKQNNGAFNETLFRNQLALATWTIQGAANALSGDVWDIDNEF
row,specific iron uptake into K562 cells,Binder
1,"> 5 % of the level for the transferrin (S415A, T613A) control",B1
2,"> 5 % of the level for the transferrin (S415A, T613A) control",B2
3,"> 5 % of the level for the transferrin (S415A, T613A) control",B3
4,"> 5 % of the level for the transferrin (S415A, T613A) control",B4

# Target: T1, transferrin receptor on human …
# Test: cell-based or functional assay
# Remark: another data set of the same source
row,Specific iron uptake Bmax,Binder
1,2830 fmol 55Fe/10^6 cells x 25 min,B5
2,3020 fmol 55Fe/10^6 cells x 25 min,B1
3,2360 fmol 55Fe/10^6 cells x 25 min,B2
4,3250 fmol 55Fe/10^6 cells x 25 min,B3
5,2430 fmol 55Fe/10^6 cells x 25 min,B4

# Target: T1, transferrin receptor on human …
# Test: specific 55Fe uptake from labelled diferric transferrin into K562 cells, 25 min at 37 C, 12.5-2000 nM; unspecific uptake (hundredfold unlabelled transferrin) subtracted; mean ± S.E.M. of three experiments
# Experimental: Iron uptake from labelled diferric transferrins was performed as follows. K562 erythroleukemic cells, cultured in RPMI cell culture medium under standard conditions (bicarbonate-buffered, 5% CO₂, antibiotics, 10% foetal calf serum) were washed with serum-free medium containing HEPES-buffer and 1 mg/ml of bovine serum albumin and used at a concentration of 10 million cells/ml in this medium.
# The reaction was started by the addition of 50 μl of cell suspension.
# After 25 min at 37° C. the reaction was stopped by immersion into an ice-bath, three aliquots of 30 μL of cell suspension were transferred to new tubes and the cells were centrifuged in the cold and again after addition of an oil layer of diethylphtalate/dibutylphthalate. The supernatant was removed, the cell pellet transferred into a counter vial and lysed with 0.5 M KOH+1% Triton X-100. The lysates were neutralized with 1M HCl after overnight lysis, mixed with Readysolv scintillation cocktail and counted in the Packard Liquid Scintillation Counter.
row,Kd,Binder
1,130 nM,B5
2,209 nM,B1
3,203 nM,B2
4,189 nM,B3
5,154 nM,B4
